Measured values published in patent publication US7485710B2, “Nucleic acids coding for adhesion factor of group B streptococcus, adhesion factors of group B streptococcus and further uses thereof” (priority 2002, dated 2009).
The star is where a group is joined. Biotin = O=C1N[C@H]2[C@H](CS[C@H]2CCCCC(=O)*)N1; Ahx = NCCCCCC(=O)O

Assays:
[1] = test system: IgG and IgA antibodies in sera from patients infected with GBS; test: Peptide ELISA of FbsA peptides with human sera; type: binding; details: five sera, dilutions 1:200 and 1:1,000
Text: The 5 biotinylated peptides (wild type <1>: GNVLERRQRDAENRSQ SEQ ID No. 113; alanine mutant peptides: <2> GAVLERRQRDAENRSQ SEQ ID No. 207, <3> GNALERRQRDAENRSQ SEQ ID No. 208, <4> GNVLEARQRDAENRSQ SEQ ID No. 211, <5> GNVLERAQRDAENRSQ SEQ ID No. 212; see also FIG. 11) were coated on Streptavidin-coated ELISA plates and analysed using 5 sera from patients infected with GBS. The patient sera were applied in a dilution of 1:200 and 1:1,000. IgG (A) and IgA (B) antibodies were detected with secondary anti-human antibodies coupled to Horse Radish Peroxidase and ABTS as substrate.
Biotin-labeled peptides were coating on Streptavidin ELISA plates (EXICON) at 10 μg/ml concentration according to the manufacturer's instructions. Sera were tested at two dilutions, 200× and 1,000×.
Highly specific Horse Radish Peroxidase (HRP)-conjugated anti-human IgG or anti-human IgA secondary antibodies (Southern Biotech) were used according to the manufacturers' recommendations (dilution: 1,000×). Antigen-antibody complexes were quantified by measuring the conversion of the substrate (ABTS) to colored product based on OD405nm readings in an automated ELISA reader (TECAN SUNRISE). Following manual coating, peptide plates were processed and analyzed by the Gemini 160 ELISA robot (TECAN) with a built-in reader (GENIOS, TECAN).

A549 cells [2] = test: Interaction of protein-coated latex beads with A549 cells (scanning electron microscopy); type: cell-based, human
Procedure: BSA-coated latex beads were used as a control.
Latex beads were either coated with BSA (A) or FbsA fusion protein (B-D) and the interaction of the coated beads with the lung epithelial cell line A549 was analyzed by scanning electron microscopy.
Approximately […] latex beads (3 μm diameter, Sigma) were washed tree times in PBS and then coated with 300 μg of fusion protein or BSA in 500 μl PBS overnight at 4° C. Coated beads were washed once in PBS and then blocked with 200 μl of 10 mg/ml BSA in PBS for 1 h at room temperature. Beads were washed twice in PBS and once in RPMI+10% FCS and then resupended in 1 ml of RPMI+10% FCS. 300 μl of beads were added to approximately 4×10^5 A549 cells in 24-well plates. The cells were incubated for 1 h at 37° C. (5% CO2), washed five times with PBS and fixed in a solution containing 3% glutaraldehyde and 5% formaldehyde in cacodylate bluffer for 45 min on ice. The samples were washed with cacodylate buffer, dehydrated in a graded series of acetone and subjected to critical point drying with CO2. Samples were then coated with a 10 nm thick gold film and examined by scanning electron microscopy as described previously (Reinscheid et al., 2001a).
Approximately 1×10^9 latex beads (3 μm diameter, Sigma) were washed three times in 25 mM 2-N-morpholinoethanesulfonic acid (MES), pH 6.8. One half was resuspended in 1.0 ml MES buffer containing 500 μg/ml FbsA fusion protein and the remaining half was resuspended in 1.0 ml MES buffer. The beads were incubated overnight at 4° C. with end-over-end rotation. After pelleting of the beads by centrifugation, the amount of remaining protein in the supernatant was determined with a Bradford protein assay kit (BioRad). The beads were washed once with MES buffer and blocked for 1 h with 10 mg/ml BSA in MES buffer at room temperature. The beads were washed twice with MES buffer, once with RPMI+10% FCS, and resuspended in RPMI+10% FCS. Confluent A549 cells in 24-well plates were inoculated with 2×10^8 beads per well in a total volume of 1.0 ml. The bead monolayer mixtures were incubated for 2 h at 37° C. in a 5% CO2 atmosphere. Cells were washed five times with PBS and fixed with 3% paraformaldehyde and 4% glutaraldehyde in […] cacodylate buffer for scanning electron microscopy. Scanning electron microscopy was performed with a Zeiss DSM 962 microscope.

A549 cells [3] = test: Epithelial cell adherence and internalization assay of GBS 6313 in presence of proteins; type: cell-based, human; details: pre-treatment of A549 cells with increasing amounts of protein
Procedure: The adherence of GBS 6313 to A549 cells (A) and its internalization into these cells (B) was arbitrarily set to 100% and the results obtained in the presence of the different fusion proteins was related to these values. Each experiment was performed at least three times in triplicate.
Adherence of GBS to epithelial cells and internalization into epithelial cells was assayed essentially as described previously (Caparon et al., 1991; Rubens et al. 1992). Briefly, A549 cells were transferred to 24-well tissue culture plates at approximately 4×10^5 cells per well and cultivated overnight in RPMI (Gibco BRL) tissue culture medium, supplemented with 10% of fetal calf serum. After replacement of the medium with 1 ml of fresh medium, the cells were infected with 5×10^6 streptococci per well and incubated at 37° C. for 2 h. The non-adherent bacteria were removed by washing three times with PBS. In adherence assays, the epithelial cells were subsequently detached from the well by the addition of trypsin/EDTA and lysed by adding 300 μl of distilled water. Adherent bacteria were quantitated by plating serial dilutions of the lysate onto THY agar plates. For internalization assays the epithelial cells were incubated after 2 h of infection for another 2 h in tissue culture medium supplemented with penicilling G (10 U) and streptomycin (0.01 mg) to kill extracellular bacteria. After three washes with PBS, the epithelial cells were detached by the addition of trypsin/EDTA and lysed in 300 μl of distilled water. The amount of intracellular bacteria was quantified by plating serial dilutions of the lysate onto THY agar plates. Each experiment was repeated at least three times in triplicate. […]
Adherence of S. agalactiae to A549 and HEL299 cells and internalization into these cells was assayed essentially as described in Example 1 for A549 cells. In some experiments, A549 cells were preincubated with different amounts of FbsA protein or FbsA-derived peptides in RPMI medium for 30 min with three subsequent washes with PBS.

GBS 6313 = test: Competitive inhibition of 125I-labelled fibrinogen binding to GBS; parameters: species or system Streptococcus agalactiae; details: increasing concentrations of purified fusion protein
Procedure: FbsA-9 differs from FbsA-19 in that it contains only 9 repeats in its repeat domain. The binding assay was performed with ^125I-labelled fibrinogen in the presence of different concentrations of each fusion protein. Each experiment was performed at least in triplicate.
Each experiment was performed at least in triplicate.
Purified human fibrinogen was radiolabelled with ^125I, using the chloramin T method (Hunter and Greenwood, 1962). Binding of labelled fibrinogen to GBS was performed essentially as described by Chhatwal et al. (Chhatwal, Muller, and Blobel, 1983). Briefly, overnight cultures of GBS were pelleted by centrifugation, washed twice with phosphate-buffered saline supplemented with 0.02% Tween 20 (PBST) and adjusted photometrically to a transmission of 10% at 600 nm. A total of 0.2 ml of the bacterial suspension was added to 20 μl of ^125I-labelled fibrinogen containing 23 ng of fibrinogen. After incubation for 1 h at room temperature, the streptococci were sedimented by centrifugation and washed with 1 ml of PBST. The radioactivity of the pellet was finally measured in a gamma counter (Packard Instruments). The amount of bacterial-bound fibrinogen was calculated as the percentage of total radiolabelled fibrinogen added to the bacteria. In inhibition experiments, the binding of 23 ng of radiolabelled fibrinogen to 0.2 ml of GBS (T=10%) was determined in the presence of various amounts of FbsA fusion proteins, Bsp fusion protein or synthetic peptides. Each experiment was repeated at least three times in triplicate.

human fibrinogen = biological target: T1, human fibrinogen (Homo sapiens, UniProt P02671+P02675+P02679); test: Western blot of fusion proteins for fibrinogen binding; details: His-tagged fusion proteins separated by SDS-PAGE, blotted, probed with human fibrinogen
T1 construct: purchased Sigma-Aldrich
Text: The fibrinogen binding activity of the three proteins encoded by different constructs are indicated below the schematic FbsA drawing.
The fusion proteins were size-separated by SDS-PAGE, transferred onto a nitrocellulose membrane and tested for fibrinogen binding by Western blotting. Bound fibrinogen was detected with rabbit anti-fibrinogen antibodies, followed by peroxidase-labelled goat anti-rabbit antibodies, and visualized by chemiluminescence. PabC and Gbs0851: full-length fusion proteins; PabC-N: N-terminal 388 amino acids of PabC; PabC-C: C-terminal 222 amino acids of PabC. (C) Identification of the FbsA and PabC-binding sites within human fibrinogen by Western blot analysis. […] Bound fusion proteins were detected with mouse anti-HisTag antibodies, followed by peroxidase-conjugated goat anti-mouse IgG fab fragments and visualized by chemiluminescence. […]
Membranes that had been blocked overnight were incubated for 1 h with 2 μg/ml of human fibrinogen. […] After three washes with PBST and two washes with PBS, bound fibrinogen was detected by chemiluminescence using the ECL-kit (Amersham/Pharmacia). In control experiments, no cross-reactivity of the used antibodies with the immobilized proteins and peptides was detected.

T1 sequence (P02675 31-491): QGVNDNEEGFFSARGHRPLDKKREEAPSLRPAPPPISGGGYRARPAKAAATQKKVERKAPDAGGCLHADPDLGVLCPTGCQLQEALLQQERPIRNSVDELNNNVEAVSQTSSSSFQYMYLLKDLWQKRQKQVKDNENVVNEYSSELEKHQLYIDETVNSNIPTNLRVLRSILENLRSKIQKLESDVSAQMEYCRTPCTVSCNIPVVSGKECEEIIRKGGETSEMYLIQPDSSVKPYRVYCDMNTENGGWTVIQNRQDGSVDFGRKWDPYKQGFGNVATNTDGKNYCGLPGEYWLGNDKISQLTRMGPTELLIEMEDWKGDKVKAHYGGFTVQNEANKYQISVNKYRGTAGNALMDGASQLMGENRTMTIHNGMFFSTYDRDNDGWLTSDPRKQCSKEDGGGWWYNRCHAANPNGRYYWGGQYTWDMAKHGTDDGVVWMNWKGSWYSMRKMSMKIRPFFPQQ
T1 sequence (P02679 27-433): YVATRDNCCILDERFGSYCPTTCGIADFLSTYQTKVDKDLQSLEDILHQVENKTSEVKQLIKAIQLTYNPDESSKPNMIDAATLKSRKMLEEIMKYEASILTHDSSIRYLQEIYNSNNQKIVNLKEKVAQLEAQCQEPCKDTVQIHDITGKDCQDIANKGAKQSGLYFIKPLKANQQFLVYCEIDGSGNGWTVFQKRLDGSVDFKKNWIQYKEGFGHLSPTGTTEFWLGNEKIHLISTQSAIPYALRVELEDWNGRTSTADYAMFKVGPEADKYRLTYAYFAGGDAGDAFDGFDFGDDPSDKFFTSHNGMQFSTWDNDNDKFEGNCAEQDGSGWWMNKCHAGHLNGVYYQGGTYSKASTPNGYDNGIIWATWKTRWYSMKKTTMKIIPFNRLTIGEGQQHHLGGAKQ
T1 sequence (P02671 20-629): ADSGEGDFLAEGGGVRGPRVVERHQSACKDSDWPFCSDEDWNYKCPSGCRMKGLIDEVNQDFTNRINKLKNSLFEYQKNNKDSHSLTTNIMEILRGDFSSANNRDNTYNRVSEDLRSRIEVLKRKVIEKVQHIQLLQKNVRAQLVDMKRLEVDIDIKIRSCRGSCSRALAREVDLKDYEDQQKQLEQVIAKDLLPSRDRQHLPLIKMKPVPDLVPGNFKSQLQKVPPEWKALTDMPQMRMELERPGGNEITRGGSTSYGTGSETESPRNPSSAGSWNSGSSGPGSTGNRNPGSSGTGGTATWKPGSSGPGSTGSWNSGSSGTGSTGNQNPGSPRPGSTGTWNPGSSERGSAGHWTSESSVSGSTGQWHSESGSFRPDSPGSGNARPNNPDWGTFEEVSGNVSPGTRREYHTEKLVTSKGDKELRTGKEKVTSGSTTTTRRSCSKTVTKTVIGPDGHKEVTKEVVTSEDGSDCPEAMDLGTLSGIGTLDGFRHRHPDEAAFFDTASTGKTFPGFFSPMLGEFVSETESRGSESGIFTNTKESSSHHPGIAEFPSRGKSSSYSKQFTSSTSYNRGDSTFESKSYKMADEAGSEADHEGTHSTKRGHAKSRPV

Molecule	reactivity of biotinylated peptides with IgA and IgG antibodies of patient sera [1]	binding of protein-coated latex beads to A549 cells (A549 cells [2])	internalization of protein-coated latex beads into A549 cells (A549 cells [2])	adherence of S. agalactiae 6313 to A549 cells after pre-treatment of the cells (A549 cells [3])	invasion of A549 cells by S. agalactiae 6313 after pre-treatment of the cells (A549 cells [3])	inhibition of binding of 125I-labelled fibrinogen to GBS 6313 (GBS 6313)	fibrinogen binding in Western blot (human fibrinogen)
GNVLERAQRDAENRSQ ({Biotin-Ahx}-GNVLERAQRDAENRSQ-NH2; SMILES CC(C)C[C@H](NC(=O)[C@@H](NC(=O)[C@H](CC(N)=O)NC(=O)CNC(=O)CCCCCNC(=O)CCCC[C@@H]1SC[C@@H]2NC(=O)N[C@@H]21)C(C)C)C(=O)N[C@@H](CCC(=O)O)C(=O)N[C@@H](CCCNC(=N)N)C(=O)N[C@@H](C)C(=O)N[C@@H](CCC(N)=O)C(=O)N[C@@H](CCCNC(=N)N)C(=O)N[C@@H](CC(=O)O)C(=O)N[C@@H](C)C(=O)N[C@@H](CCC(=O)O)C(=O)N[C@@H](CC(N)=O)C(=O)N[C@@H](CCCNC(=N)N)C(=O)N[C@@H](CO)C(=O)N[C@@H](CCC(N)=O)C(N)=O) [peptide 5]	less well recognized by all sera	–	–	–	–	–	–
GNVLERRQRDAENRSQ ({Biotin-Ahx}-GNVLERRQRDAENRSQ-NH2; SMILES CC(C)C[C@H](NC(=O)[C@@H](NC(=O)[C@H](CC(N)=O)NC(=O)CNC(=O)CCCCCNC(=O)CCCC[C@@H]1SC[C@@H]2NC(=O)N[C@@H]21)C(C)C)C(=O)N[C@@H](CCC(=O)O)C(=O)N[C@@H](CCCNC(=N)N)C(=O)N[C@@H](CCCNC(=N)N)C(=O)N[C@@H](CCC(N)=O)C(=O)N[C@@H](CCCNC(=N)N)C(=O)N[C@@H](CC(=O)O)C(=O)N[C@@H](C)C(=O)N[C@@H](CCC(=O)O)C(=O)N[C@@H](CC(N)=O)C(=O)N[C@@H](CCCNC(=N)N)C(=O)N[C@@H](CO)C(=O)N[C@@H](CCC(N)=O)C(N)=O; listed as Streptococcus agalactiae) [wild type peptide]	less well recognized by all sera	–	–	–	–	–	–
FbsA-19: hexahistidyl-tagged FbsA protein from S. agalactiae 6313 with 19 repeats, devoid of signal peptide and membrane-spanning region (protein, left off: small tags and cut ends, hexahistidyl-tagged FbsA protein from S. agalactiae 6313 with 19 repeats, devoid of signal peptide and membrane-spanning region) MDSVGNQSQGNVLERRQRDAENRSQGNVLERRQRDVENKSQGNVLERRQRDAENKSQGNVLERRQRDAENRSQGNVLERRQRDAENRSQGNVLERRQRDAENRSQGNVLERRQRDAENRSQGNVLERRQRDAENRSQGNVLERRQRDVENKSQGNVLERRQRDAENKSQGNVLERRQRDAENRSQGNVLERRQRDAENRSQGNVLERRQRDAENRSQGNVLERRQRDAENRSQGNVLERRQRDAENRSQGNVLERRQRDAENRSQGNVLERRQRDAENRSQGNVLERRQRDAENRSQGNVLERRQRDAENKSQVGQLIGKNPLLSKSIISRENNHSSQGDSNKQSFSKKVSQVTNVANRPMLTNNSRTISVINKLPKTGDDQNV	–	in high numbers	observed rather rarely	substantially inhibited	substantially inhibited	substantially inhibited	binding to human fibrinogen
